Data as given in patent US7556950 (Takeda / Millennium, dated 2009).

Target: the molecule itself
Assay: analytical size-exclusion chromatography; self-association (homodimer) of the purified catalytic domain

B1: recombinant catalytic domain of human phosphodiesterase 4-D3 (PDE4-D3), residues 253-580 of SEQ. ID No. 1, after removal of the N-terminal 6x-histidine tag … (enzyme)
chain: GAMDPTEQEDVLAKELEDVNKWGLHVFRIAELSGNRPLTVIMHTIFQERDLLKTFKIPVDTLITYLMTLEDHYHADVAYHNNIHAADVVQSTHVLLSTPALEAVFTDLEILAAIFASAIHDVDHPGVSNQFLINTNSELALMYNDSSVLENHHLAVGFKLLQEENCDIFQNLTKKQRQSLRKMVIDIVLATDMSKHMNLLADLKTMVETKKVTSSGVLLLDNYSDRIQVLQNMVHCADLSNPTKPLQLYRQWTDRIMEEFFRQGDRERERGMEISPMCDKHNASVEKSQVGFIDYIVHPLWETWADLVHPDAQDILDTLEDNREWYQSTIPQSP
notes: The limits 24-357 come from the claims, which define the protein of the Rolipram complex this way; The purified protein was buffer-exchanged with a 2-molar excess of the small molecule Rolipram; Expressed in Hi5 insect cells; also called PDE4D3 catalytic domain; purified PDE4-D3
  binding result: binds
